The values below come from article PMC3119066 (DNA repair, 2011).

Test [1] deals with T1, Rad51 (S. cerevisiae, UniProt P25454 1-400).
T1 sequence (looked up): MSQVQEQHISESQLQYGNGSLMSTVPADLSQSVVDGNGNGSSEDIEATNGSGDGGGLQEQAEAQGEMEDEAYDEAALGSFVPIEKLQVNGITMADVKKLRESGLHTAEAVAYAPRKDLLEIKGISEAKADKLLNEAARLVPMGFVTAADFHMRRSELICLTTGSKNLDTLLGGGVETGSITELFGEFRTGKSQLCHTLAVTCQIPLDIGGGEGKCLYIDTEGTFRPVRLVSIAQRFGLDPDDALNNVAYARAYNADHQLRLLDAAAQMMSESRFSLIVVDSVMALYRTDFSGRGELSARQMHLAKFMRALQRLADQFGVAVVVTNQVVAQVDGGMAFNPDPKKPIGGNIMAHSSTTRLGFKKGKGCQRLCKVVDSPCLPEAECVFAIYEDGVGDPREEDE
The experiment in a line: pull-down.

Test [2] addresses T1, Rad51. The experiment in a line: pull-down. The source holds these as a separate data set.

Where two headings read alike, the source gives them in different places.

B1: MBP-Mei5-N (domain or fragment, S. cerevisiae, UniProt P32489 1-121, looked up)
chain: MHNQEEWLDKDKTLVNEEENTCINHSYTKKDTNNYRVGKSGIKDLKKPTNQKEIAIKNRELTKQLTLLRQENNHLQQACKILSENKIIENRKSIEKWRTICEMELSFILNSTLIKINRMGG
Consider B1, for which the binding result in test [1] was “binds”.

B2: Mei5-Sae3 complex (complex, S. cerevisiae)
chain 1: MHNQEEWLDKDKTLVNEEENTCINHSYTKKDTNNYRVGKSGIKDLKKPTNQKEIAIKNRELTKQLTLLRQENNHLQQACKILSENKIIENRKSIEKWRTICEMELSFILNSTLIKINRMGGYKDFLEKEMEAKKRRLEYQIDNGMEDQICEIKESDDFRQLSEVEKQEWESQMNEQLKELEKKKIAELEKLNKVLHDSEGKDFGMAELCTRLKLDYSLIFPQ
chain 2: MNYLETQLNKKQKQIQEYESMNGNLIKMFEQLSKEKKNDETPKKISSTYIKELKEYNELRDAGLRLAQIIADEKQCKIKDVFEEIGYSMKD
Take B2: the binding result in test [2] is on record as “binds”.
